We go through 42 molecules from patent US20140363428A1 (Chugai, published 2014).

Substitutions are numbered along the chain they refer to.

One may read the Kd as a measure of binding affinity in units of concentration. Lower therefore signals higher affinity.

B1: F1670 (antibody)
heavy: QVQLQESGPGLVKPSETLSLTCAVSGHSISHDHAWSWVRQPPGEGLEWIGFISYSGITNYNPSLQGRVTISRDNSKNTLYLQMNSLRAEDTAVYYCARSLARTTAMDYWGEGTLVTVSSASTKGPSVFPLAPSSKSTSGGTAALGCLVKDYFPEPVTVSWNSGALTSGVHTFPAVLQSSGLYSLSSVVTVPSSSLGTQTYICNVNHKPSNTKVDKKVEPKSCDKTHTCPPCPAPELRGGPKVFLFPPKPKDTLMISRTPEVTCVVVDVSHEDPEVKFNWYVDGVEVHNAKTKPREEQYNSTYRVVSVLTVLHQDWLNGKEYKCKVSNKALPAPIEKTISKAKGQPREPQVYTLPPSRDELTKNQVSLTCLVKGFYPSDIAVEWESNGQPENNYKTTPPVLDSDGSFFLYSKLTVDKSRWQQGNVFSCSVMHEALHYHVTRKELSLSP
light: DIQMTQSPSSLSASVGDSVTITCQASTDISSHLNWYQQKPGKAPELLIYYGSHLLSGVPSRFSGSGSGTDFTFTISSLEAEDAATYYCGQGNRLPYTFGQGTKVEIERTVAAPSVFIFPPSDEQLKSGTASVVCLLNNFYPREAKVQWKVDNALQSGNSQESVTEQDSKDSTYSLSSTLTLSKADYEKHKVYACEVTHQGLSSPVTKSFNRGEC
B2: F1675 (antibody)
heavy: B1 heavy with H435D, R440Q, E442S
light: B1 light
B3: F1716 (antibody)
heavy: B1 heavy with H435D, R440K
light: B1 light
B4: F1683 (antibody)
heavy: B1 heavy with V438F
light: B1 light
B5: F1712 (antibody)
heavy: B1 heavy with R440K
light: B1 light
B6: F1714 (antibody)
heavy: B1 heavy with H435D
light: B1 light
B7: F1715 (antibody)
heavy: B1 heavy with H435D, E442D
light: B1 light
B8: F1681 (antibody)
heavy: B1 heavy with V438T
light: B1 light
B9: Fv-4-F1119 (antibody, human IgG1, kappa)
heavy: B1 heavy with R237L, K241S, T252V, M254Y, T309Q, V310P, Q313A, V424E, R440Q, E442S
light: B1 light
B10: Fv-4-F1104 (antibody, human IgG1, kappa)
heavy: B1 heavy with R237L, K241S, M254Y, V424E, S426R, R440Q, E442S
light: B1 light
B11: Fv-4-F1112 (antibody, human IgG1, kappa)
heavy: B1 heavy with R237L, K241S, M254Y, R440K, E442S
light: B1 light
B12: Fv-4-F1109 (antibody, human IgG1, kappa)
heavy: B1 heavy with R237L, K241S, M254Y, V424T, R440Q, E442S
light: B1 light
B13: Fv-4-F1062 (antibody, human IgG1, kappa)
heavy: B1 heavy with R237L, K241S, M254Y, P389R, R440Q, E442S
light: B1 light
B14: Fv-4-F1113 (antibody)
heavy: B1 heavy with R237L, K241S, M254Y, R440Q, E442D
light: B1 light
B15: Fv-4-F1121 (antibody, human IgG1, kappa)
heavy: QVQLQESGPGLVKPSETLSLTCAVSGHSISHDHAWSWVRQPPGEGLEWIGFISYSGITNYNPSLQGRVTISRDNSKNTLYLQMNSLRAEDTAVYYCARSLARTTAMDYWGEGTLVTVSSASTKGPSVFPLAPSSKSTSGGTAALGCLVKDYFPEPVTVSWNSGALTSGVHTFPAVLQSSGLYSLSSVVTVPSSSLGTQTYICNVNHKPSNTKVDKKVEPKSCDKTHTCPPCPAPELLGGPSVFLFPPKPKDVLYISRTPEVTCVVVDVSHEDPEVKFNWYVDGVEVHNAKTKPREEQYNSTYRVVSVLQPLHADWLNGKEYKCKVSNKALPAPIEKTISKAKGQPREPQVYTLPPSRDELTKNQVSLTCLVKGFYPSDIAVEWESNGQPENNYKTTPPVLDSDGSFFLYSKLTVDKSRWQQGNEFRCSVMHEALHYHVTQKSLSLSP
light: B1 light
B16: Fv-4-F1120 (antibody, human IgG1, kappa)
heavy: B15 heavy with E424V
light: B1 light
B17: Fv-4-F1061 (antibody, human IgG1, kappa)
heavy: B1 heavy with R237L, K241S, M254Y, P389E, R440Q, E442S
light: B1 light
B18: Fv-4-F1114 (antibody)
heavy: B1 heavy with R237L, K241S, M254Y, R440Q, E442Q
light: B1 light
B19: Fv-4-F1107 (antibody, human IgG1, kappa)
heavy: B15 heavy with V252T, Q309T, P310V, A313Q, E424D, R426S
light: B1 light
B20: Fv-4-F1073 (antibody)
heavy: B1 heavy with R237L, K241S, M254Y, R440Q, E442R
light: B1 light
B21: Fv-4-F1111 (antibody, human IgG1, kappa)
heavy: B15 heavy with V252T, Q309T, P310V, A313Q, E424V, R426K
light: B1 light
B22: Fv-4-F1068 (antibody, human IgG1, kappa)
heavy: B15 heavy with V252T, Q309T, P310V, A313Q, E424V
light: B1 light
B23: Fv-4-F1060 (antibody, human IgG1, kappa)
heavy: B1 heavy with R237L, K241S, M254Y, Q388S, R440Q, E442S
light: B1 light
B24: Fv-4-F1232 (antibody)
heavy: B1 heavy with R237L, K241S, M254Y, R440K, E442D
light: B1 light
B25: Fv-4-F1067 (antibody, human IgG1, kappa)
heavy: B15 heavy with V252T, Q309T, P310V, A313Q, E424V, R426E
light: B1 light
B26: Fv-4-F1066 (antibody, human IgG1, kappa)
heavy: B15 heavy with V252T, Q309T, P310V, A313Q, E424S, R426S
light: B1 light
B27: Fv-4-F1065 (antibody, human IgG1, kappa)
heavy: B15 heavy with V252T, Q309T, P310V, A313Q, E424R, R426S
light: B1 light
B28: Fv-4-F1106 (antibody)
heavy: B1 heavy with R237L, K241S, M254Y
light: B1 light
B29: Fv-4-F1230 (antibody)
heavy: B1 heavy with R237L, K241S, M254Y, E442D
light: B1 light
B30: Fv-4-F1064 (antibody, human IgG1, kappa)
heavy: B15 heavy with V252T, Q309T, P310V, A313Q, R426S
light: B1 light
B31: Fv-4-F1069 (antibody, human IgG1, kappa)
heavy: B1 heavy with R237L, K241S, M254Y, R440E, E442S
light: B1 light
B32: Fv-4-F1123 (antibody)
heavy: B15 heavy with E424V, R426S, S442E
light: B1 light
B33: Fv-4-F1108 (antibody, human IgG1, kappa)
heavy: B15 heavy with V252T, Q309T, P310V, A313Q, E424K, R426S
light: B1 light
B34: Fv-4-F1070 (antibody, human IgG1, kappa)
heavy: B1 heavy with R237L, K241S, M254Y, E442S
light: B1 light
B35: Fv-4-F1072 (antibody)
heavy: B1 heavy with R237L, K241S, M254Y, R440Q
light: B1 light
B36: Fv-4-F1063 (antibody, human IgG1, kappa)
heavy: B1 heavy with R237L, K241S, M254Y, P389S, R440Q, E442S
light: B1 light
B37: Fv-4-F1122 (antibody, human IgG1, kappa)
heavy: B15 heavy with E424V, R426S, Q440R
light: B1 light
B38: Fv-4-F1124 (antibody)
heavy: B15 heavy with E424V, R426S, Q440R, S442E
light: B1 light
B39: Fv-4-F1071 (antibody, human IgG1, kappa)
heavy: B1 heavy with R237L, K241S, M254Y, R440S, E442S
light: B1 light
B40: Fv-4-F1110 (antibody, human IgG1, kappa)
heavy: B15 heavy with V252T, Q309T, P310V, A313Q, E424Q, R426S
light: B1 light
B41: Fv-4-F1231 (antibody)
heavy: B1 heavy with R237L, K241S, M254Y, R440K
light: B1 light
B42: Fv-4-F1105 (antibody, human IgG1, kappa)
heavy: B15 heavy with V252T, Q309T, P310V, A313Q, E424S
light: B1 light

T1 sequence (P55899 24-297 limits assumed, chain 1 of 2): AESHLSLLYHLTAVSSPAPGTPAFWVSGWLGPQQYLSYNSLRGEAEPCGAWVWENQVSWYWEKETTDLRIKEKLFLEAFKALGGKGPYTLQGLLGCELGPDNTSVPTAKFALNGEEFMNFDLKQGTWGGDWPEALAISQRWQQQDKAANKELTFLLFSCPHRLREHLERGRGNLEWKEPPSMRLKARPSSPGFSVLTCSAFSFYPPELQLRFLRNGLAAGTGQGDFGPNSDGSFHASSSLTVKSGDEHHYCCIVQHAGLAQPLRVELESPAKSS
T1 sequence (P61769 21-119 limits assumed, chain 2 of 2): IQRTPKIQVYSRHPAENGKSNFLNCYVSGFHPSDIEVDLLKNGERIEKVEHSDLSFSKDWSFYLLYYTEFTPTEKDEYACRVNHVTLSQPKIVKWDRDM

One test concerns the target T1, soluble human FcRn (human, UniProt P55899 24-297; P61769 21-119).
T1 construct: Heterodimer of alpha chain and beta2-microglobulin; also called hFcRn
Briefly: SPR (Biacore), pH 6.0. (In general: Surface plasmon resonance follows binding to a sensor surface in real time, without labels.)
As for B1, the Kd was 64 nM. Still for that read-out and setting: the value for B2 was 97 nM; that for B3 was 96 nM; that for B4 was 57 nM.

Molecule B5 displayed a Kd of 55 nM. B6 came in with a Kd of 110 nM.

In turn, B7 yielded a Kd of 110 nM. B8 displayed a Kd of 84 nM.

The target of the next test is T1, soluble human FcRn. The experiment in a line: SPR (Biacore), pH 7.0.
In turn, B9 showed a Kd of 10 nM. As for B10, binding was characterised by a dissociation constant (Kd) of 180 nM. B11: binding was characterised by a dissociation constant (Kd) of 120 nM.

With B12, the affinity, expressed as Kd, was 130 nM. B13 came in with a Kd of 120 nM. Consider B14, for which the Kd turned out to be 120 nM. B15 had a Kd of 10 nM. With B16, binding was characterised by a dissociation constant (Kd) of 10 nM.

Turning to B17, binding was put at a Kd of 120 nM. The same measure, in the same setting: with B18 the figure was 130 nM; with B19, 120 nM. For the molecule B20, binding was characterised by a dissociation constant (Kd) of 134 nM. Still for that read-out and setting: the value for B21 was 160 nM. Turning to B22, the affinity, expressed as Kd, was 170 nM. B23: the Kd was determined as 140 nM. Regarding B24, binding was characterised by a dissociation constant (Kd) of 97.9 nM. In turn, B25 had a Kd of 130 nM. For the molecule B26, the Kd was determined as 140 nM. Same read-out and setting: the value for B27 was 140 nM; that for B28 was 140 nM. The molecule B29 gave a Kd of 112 nM. As for B30, the Kd came to 130 nM.

Consider B31, for which the Kd stood at 140 nM.

In turn, B32 returned a Kd of 9.5 nM. B33 showed a Kd of 130 nM. As for B34, the Kd was 170 nM. Take B35: the Kd amounted to 130 nM. In turn, B36 yielded a Kd of 140 nM. The molecule B37 registered a Kd of 14 nM. Same read-out and setting: the value for B38 was 12 nM; that for B39 was 120 nM; that for B40 was 130 nM. Take B41: the affinity, expressed as Kd, was 97.3 nM. Same read-out and setting: the value for B42 was 150 nM.
